Data published in patent publication US20250295111A1, “ANTIMICROBIAL PEPTIDES OF ACTI[…] METHODS OF USE THEREOF” (THE REGENTS OF THE UNIVERSITY OF CALIFORNIA, priority 2023, published 2025).

Test system: Saccharomyces cerevisiae
Experiment: Antimicrobial peptide inhibition assay (filter paper disk on YPD agar plate, zone of inhibition)
Type: cell-based
Details: protein extract from recombinant E. coli BL21 (DE3) overexpressing the AMP, 6-mm filter paper disk on YPD agar plate, 30° C. for 24 h
Experimental: A 102 amino acid AMP candidate from Streptosporangium becharense DSM 46887 (GenBank ID: MBB5817359.1) with a predicted molecular weight of 11.2 kDa, pI of 8.67 and charge of 3.5, was cloned in E. coli for functional validation. The sequence was codon optimized and sent to Twist Biosciences (San Francisco, CA) for synthesis and cloned into a pET-21 (+) expression vector. The plasmid DNA (pET-21 (+)_AMP_S.be) was then transferred into E. coli BL21 (DE3) strain with […] carbenicillin (MilliporeSigma, Burlington, MA) selection. To overexpress the short peptide, 100 mL of E. coli BL21 (DE3) harboring the recombinant plasmid was cultured in Luria-Bertani broth containing […] of carbenicillin at 37° C. until the mid-exponential phase. The overexpression was induced by addition of 0.1 mM isopropyl-b-D-thiogalactopyranoside (MilliporeSigma, Burlington, MA) at 25° C. and 120 rpm for 16 h. […]
Yeast Saccharomyces cerevisiae was used for the antimicrobial activity assessment with proteins extracted from the recombinant E. coli. […] After incubation at 30° C. for 24 h, the antimicrobial activity of the short peptide was determined by appearance of the zone of inhibition. To confirm the overexpression of the short peptide, the protein extract was analyzed using SDS-PAGE gel (12% Mini-PROTEAN_TGXTM Precast Gel, Bio-Rad Laboratories, Hercules, CA). […]

B1: AMP candidate from Streptosporangium becharense DSM 46887: 102 amino acid AMP candidate with signal peptide from Streptosporangium becharense DSM 46887, overexpressed in E. coli (protein)
chain: MKRIFLVPALTAGIFALTTGAAYASQYIAYEGPGFTGRSVLIDACGPSNIPYHGSYKWYGDGQSGRMYNQPNAHGVMHFRLPSNNNAEQRTPVGWQSIFIEC
modifications: Streptosporangium becharense
notes: 102 amino acid AMP candidate with signal peptide from Streptosporangium becharense DSM 46887, overexpressed in E. coli
Question: Which results are given for B1?
Answer: antimicrobial activity determined by appearance of the zone of inhibition: Inhibition of Saccharomyces cerevisiae is demonstrated; antimicrobial activity determined by appearance of the zone of inhibition (listed as AMP candidate of Streptosporangium becharense DSM 46887): Inhibition of Saccharomyces cerevisiae
